The values that follow are results of earlier work, collected in PMC4623604, “Discovery of Small Molecules that Inhibit the Disordered Protein, p27^Kip1” (Scientific Reports, 2015).

The target of the data set is cyclin A (Homo sapiens) (UniProt P20248).
Chain of cyclin A (Homo sapiens) (P20248 whole entry): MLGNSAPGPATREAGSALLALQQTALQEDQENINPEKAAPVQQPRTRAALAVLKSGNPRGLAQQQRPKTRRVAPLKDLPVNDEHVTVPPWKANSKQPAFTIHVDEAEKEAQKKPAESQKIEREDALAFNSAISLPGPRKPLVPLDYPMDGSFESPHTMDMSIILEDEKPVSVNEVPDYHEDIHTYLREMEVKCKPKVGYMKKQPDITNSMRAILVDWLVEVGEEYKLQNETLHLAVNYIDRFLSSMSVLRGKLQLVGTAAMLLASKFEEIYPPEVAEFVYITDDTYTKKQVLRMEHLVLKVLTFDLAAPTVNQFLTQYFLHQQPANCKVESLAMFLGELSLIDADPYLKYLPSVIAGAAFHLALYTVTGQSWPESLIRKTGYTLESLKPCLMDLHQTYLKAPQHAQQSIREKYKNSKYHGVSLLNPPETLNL

For orientation: Kd means the concentration at which binding is half-saturated. Regarding p27 D1 (from UniProt P46527), the Kd was 42 nM.
